Earlier results on one substance are cited in PMC1448213.

In this data set the target is high affinity NGF receptor (UniProt P35739).
Sequence of UniProt P35739 (P35739 33-418): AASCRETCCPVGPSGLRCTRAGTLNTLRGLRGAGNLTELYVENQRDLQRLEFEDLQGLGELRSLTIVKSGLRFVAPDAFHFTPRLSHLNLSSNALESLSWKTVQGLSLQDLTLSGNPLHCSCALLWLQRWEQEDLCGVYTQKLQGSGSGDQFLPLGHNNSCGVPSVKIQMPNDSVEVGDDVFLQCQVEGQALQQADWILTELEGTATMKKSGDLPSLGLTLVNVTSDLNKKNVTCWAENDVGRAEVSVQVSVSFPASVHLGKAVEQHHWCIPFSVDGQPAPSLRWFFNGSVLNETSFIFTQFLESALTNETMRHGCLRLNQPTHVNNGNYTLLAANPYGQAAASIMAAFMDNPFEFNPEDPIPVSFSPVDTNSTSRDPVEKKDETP

Sequence of NGF (P01139 122-241): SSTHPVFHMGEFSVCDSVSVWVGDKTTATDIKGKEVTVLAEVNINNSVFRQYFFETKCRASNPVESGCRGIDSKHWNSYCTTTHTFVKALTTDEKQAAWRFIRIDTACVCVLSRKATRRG

As to NGF (from UniProt P01139), the Kd was 600 pM.

For orientation: Kd means the concentration at which binding is half-saturated.
